Measured values reported in PMC3518142.

Columns and labels:
[1] = target: GnRHR-DesK191 (human) (UniProt P30968)
[2] = target: Wild-type gonadotropin-releasing hormone receptor (human) (UniProt P30968); test: radioligand binding; transfected MDA-MB-231 cells in 24-well plates, 90 minutes at room temperature with [125I]-Buserelin in the presence or absence of excess (10 uM) unlabeled Buserelin; cells washed, solubilized and counted; relative affinities given as Ki
[3] = target: endogenous GnRHR of MDA-MB-231 cells (human (endogenous in MDA-MB-231)) (UniProt P30968); test: as above
[4] = target: GnRHR-DesK191 (human) (UniProt P30968); test: as above

Row | Buserelin-stimulated inositol phosphate (IP) production in transfected MDA-MB-231 cells, relative to WT GnRHR (% of WT levels) [1] | Ki [2] [nM] | Ki [3] [nM] | Ki [4] [nM] | [125I]-Buserelin binding, percent of WT levels (% of WT levels) [4] | Substance
1 | 590 | 500 | 1030 | 700 |  | Buserelin (peptide)
2 |  |  |  |  | 139 | [125I]-Buserelin (peptide)
